The text below walks through data of the nanobody polyreactivity screen of Harvey et al. (2022).

A short description of the data set: yeast display, Sf9 membrane polyspecificity reagent, FACS + sequencing; frameworks hold sequencing errors. In a few lines: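 A synthetic nanobody library was expressed on Saccharomyces cerevisiae BJ5465 by galactose induction for 36–48 hours. The library was stained for 1 hour at 4 °C with 10% biotinylated, detergent-solubilized Sf9 membrane reagent and enriched with streptavidin microbeads before FACS. Low and high (top ~1%) gates were set on anti-HA fluorescence for expression and streptavidin fluorescence for reagent binding, and each polyreactivity label reflects the gate of origin.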
Take “QVQLVESGGGLVQAGGSLRLSCAASGSTFWSYAMGWYRPAPGKERELVAAITSGGRTYYADSVKGRFTISRDNAKNTVYLQMNSLKPEDTAVYYCAAEGSVGLYGLIMHYWGQGTQVTVSS”: the “polyreactivity (PSR sort gate)” value is listed as “high polyreactivity”.
Turning to “QVQLVESGGGLVQAGGSLRLSCAASGSTFWSYAMGWYRQAPGKERELVASISRRGGSTSYADSVKGRFTISRDNAKNTVYLQMNSLKPEDTAVYYCAARLLRTTKPRSGYGYWGQGTQVTVSS”, the “polyreactivity (PSR sort gate)” value is recorded as “high polyreactivity”.
Take “QVQLVESGGGLVQAGGSLRLSCAASGSTFWTNAMGWYRQAPGKERELVAAISRSGGSTYYADSVKGRFTISRDNAKNTVYLQMNSLKPEDTAVYYCNAVLPYYRGSHYDYWGQGTQVTVSS”: the “polyreactivity (PSR sort gate)” value is given as “high polyreactivity”.
On to “QVQLVESGGGLVQAGGSLRLSCAASGSTFWTNDMGWYRQAPGKERELVAAISQSAGDTYYADSVKGRFTISRDNAKNTVYLQMNSLKPEDTAVSYCAADLVFYPFTWDGYYYWGQGTQVTVSS”, for which the “polyreactivity (PSR sort gate)” value was “low polyreactivity”.
As for “QVQLVESGGGLVQAGGSLRLSCAASGSTFWVNAMGWYRQAPGKERELVAAISERGGRTYYADSVKGRFTISRDNAKNTVYLQMNSLKPEDTAVYYCNRVTRSNVDYWGQGTQVTVSS”, the “polyreactivity (PSR sort gate)” value is “high polyreactivity”.
“QVQLVESGGGLVQAGGSLRLSCAASGSTFWVNAMGWYRQAPGKERELVAAITVRGTSTYYADSVKGRFTISRDNAKNTVYLQMNSLKPEDTAVYYCAADTPSNSHDYWGQGTQVTVSS”: the “polyreactivity (PSR sort gate)” value is reported as “low polyreactivity”.
As for “QVQLVESGGGLVQAGGSLRLSCAASGSTFWVNARGWYRQAPGKERELVAAIRRGGSTKYADSVKGRFTISRDNAKTTVYLQMNSLKPEDTAVYYCAADSYRTPAIYDYWGQGTQVTVSS”, the “polyreactivity (PSR sort gate)” value is recorded as “high polyreactivity”.
As to “QVQLVESGGGLVQAGGSLRLSCAASGSTFWVYAMGWYRQAPGKERELVAGISNSGGNTYYADSVKGRFTISRDNAKNTVYLQMNSLKPEDTAVYYCNVDRGNPVPPSEYWGQGTQVSVSS”, the “polyreactivity (PSR sort gate)” value is recorded as “low polyreactivity”.
Regarding “QVQLVESGGGLVQAGGSLRLSCAASGSTFWWTTMGWYRQAPGTERELVAAITTGGGTYYADSVKGRFTISRDNAKNTVYLQMNSLKPEDTAVYYCNADYDSQYHYLLRYDYWGQGTQVTVSS”, the “polyreactivity (PSR sort gate)” value is reported as “low polyreactivity”.
In the case of “QVQLVESGGGLVQAGGSLRLSCAASGSTFWWYAMGWYRPAPGKERELVARISNGGGTNYADSGKGRFTISRDNEKNSVFLQMNSLIPEDTAVYYCAATVGVAYYENDYWGQGTQVTVSS”, the “polyreactivity (PSR sort gate)” value was “low polyreactivity”.
The entry for “QVQLVESGGGLVQAGGSLRLSCAASGSTFWYNTMGWYRQAPGKERELVAAITSSGGSTYYADSVKGRFTISRDNAKNTVYLQMNSLKPEDTAVYYCNALHTRTGVKARYYYWGQGTQVTVSS” is “high polyreactivity”.
In the case of “QVQLVESGGGLVQAGGSLRLSCAASGSTFWYYDMGWYRQAPGKERELVAAITSGGRTNYADSVKGRFTISRDNAKNTVYLQMNSLKPEDTAVYYCNAVSYGKYVFQDGDYWGQGTQVTVSS”, the “polyreactivity (PSR sort gate)” value is listed as “high polyreactivity”.
Consider “QVQLVESGGGLVQAGGSLRLSCAASGSTFWYYDMGWYRQAPGQERALVAASTSGGRTNYADSVKGRVTISRDKAKNTVYLQMNSLKPEDTAVYYCARTSYRFYRKRYYWGQGTQVTVSS”, for which the “polyreactivity (PSR sort gate)” value is given as “high polyreactivity”.
To “QVQLVESGGGLVQAGGSLRLSCAASGSTFWYYGMGWYRQAPGKEMELVARINWSTGRTYYADSVKGRFTISRDTAKNTVYLQMNSLKPEDTAVYYCNALNPYKGQEAHYDYWGQGTQVTVSS” belongs “high polyreactivity”.
For “QVQLVESGGGLVQAGGSLRLSCAASGSTFWYYTMGWYRQAPGKERELVAGITSGGSTYYADSVKGRFTISRDNAKNTVYLQMNSLKPEDTAVYYCAKRYYGRGYYYWGQGTQVTVSS”, the “polyreactivity (PSR sort gate)” value is “high polyreactivity”.
To “QVQLVESGGGLVQAGGSLRLSCAASGSTFYANAMGWYRQAPGKERELVAAITRSGAGTYYADSVKGRFTFSRDNAKNTVYLQMNSLKPEDTAVYYCATRYGQWGQGTQVTVSS” belongs “high polyreactivity”.
Consider “QVQLVESGGGLVQAGGSLRLSCAASGSTFYANAMGWYRQAPGKERELVAEISFSGASTFYADSVKGRFTISRDNAKNTVYLQMNSLKPEDTAVYYCATANPSVVGFDYWGQGTQVTVSS”, for which the “polyreactivity (PSR sort gate)” value is recorded as “low polyreactivity”.
On to “QVQLVESGGGLVQAGGSLRLSCAASGSTFYANPMGWYRQAPGKERELLAAITSGGSTNYADSVKGRFTISRDNAKITVYLQMISLKPEDTAVYYCATQVNRERHAEDYWGQGTQVTVSS”, for which the “polyreactivity (PSR sort gate)” value is “low polyreactivity”.
To “QVQLVESGGGLVQAGGSLRLSCAASGSTFYAYAMGWYRPAPGKERELVAAISSDGTNYADSVKGRFTISRDNAKNTVYLQMNSLKPEDTAVYYCAADLLLYSSQDNDYWGQGTQVTVSS” belongs “low polyreactivity”.
In the case of “QVQLVESGGGLVQAGGSLRLSCAASGSTFYAYAMGWYRQAPGKERELVAAIRRSTGRTYYADSVKGRFTISRDNAKNTVYLQMNSLKPEDTAVYYCAASYPVDYYDMYYWGQGTQVTVSS”, the “polyreactivity (PSR sort gate)” value was “high polyreactivity”.
In the case of “QVQLVESGGGLVQAGGSLRLSCAASGSTFYAYAMGWYRQAPGKERELVAAISSDGTNYADSVKGRFTISRDNAKNSVNLQMNSLKPVDTAVYYCAADLLLYSSQDNDYWGQGTQVTVSS”, the “polyreactivity (PSR sort gate)” value is recorded as “low polyreactivity”.
As to “QVQLVESGGGLVQAGGSLRLSCAASGSTFYAYAMGWYRQAPGKERELVARIRWRGGRTYYADSVKGRFTISRDNAKNTVYLRMNSLKPEDTAVYYCNRGYYSYYGRYYYWGQGTQVTVSS”, the “polyreactivity (PSR sort gate)” value is reported as “high polyreactivity”.
Consider “QVQLVESGGGLVQAGGSLRLSCAASGSTFYAYAMGWYRQAPGKERELVAVITSSGSTYYADSVKGRFTISRDNAKNTVYLQMNSLKPEDTAVYYCAAKRLSQSRRTQFRTRYPPMYYWGQGTQVTVSS”, for which the “polyreactivity (PSR sort gate)” value is “high polyreactivity”.
To “QVQLVESGGGLVQAGGSLRLSCAASGSTFYAYAMGWYRQAPGKGGELVAAIDSGGSTYYADSVKGRFTISRDNAKNTVYLQMNSLKPEDTAVYYCAVRHRYTRAYWGRDYWGQGTQVTVSS” belongs “low polyreactivity”.
As to “QVQLVESGGGLVQAGGSLRLSCAASGSTFYAYAMGWYSQAPGKERELVAAITRSGGSTYYADSVKGRFTISRDNAKNTVYLQMNSLKPEDTDVYYCNKYGYKGGVGYDYWGQGTQVTLSS”, the “polyreactivity (PSR sort gate)” value was “high polyreactivity”.
“QVQLVESGGGLVQAGGSLRLSCAASGSTFYDNAMGWYRQAPGKERELVAAINWSSDTTYYADSVKGRFTISRDNAKNTVYLQMNSLKPEDTAVYYCATDSAYRGYDYWGQGTQVTVSS”: the “polyreactivity (PSR sort gate)” value is given as “low polyreactivity”.
On to “QVQLVESGGGLVQAGGSLRLSCAASGSTFYDYAMGWSRQAPGKERELVAAINGNGDSTYYADSVKGRFTISRDNAKITVYLLMNSLKPEDTAVYDCAAYLGWGYDYWGQGTQVTVSS”, for which the “polyreactivity (PSR sort gate)” value is on record as “low polyreactivity”.
Turning to “QVQLVESGGGLVQAGGSLRLSCAASGSTFYDYAMGWYRQAPGKERELVAAISRGGSTYYADCVKGRFTISRDNAKNTVYLQMNSLKPEDTAVYYCAAGRSYDSGFYYWGQGTQVTVSS”, the “polyreactivity (PSR sort gate)” value was “low polyreactivity”.
To “QVQLVESGGGLVQAGGSLRLSCAASGSTFYDYAMGWYRQAPGKERVLVAAISTSGGSTYADSVYGRFTISRDNAKNTVYLQMNSLKPEDTAVYYCNADDPGYAVPWYWFKYDYWGQGTQVTVSS” belongs “low polyreactivity”; to “QVQLVESGGGLVQAGGSLRLSCAASGSTFYDYAMGWYRQAPGKESELVAAITSSGASTYYADSVKGRFTISRDNAKNTVYLQMNSLKPEDTAVYYCAARKVWRSIRVALDYWGQGTQVTVSS”, “high polyreactivity”; to “QVQLVESGGGLVQAGGSLRLSCAASGSTFYEYAMGWYRQAPGKERELVAAITSGGSTYYADSVKGRFTISRDNAKNTVYLQMNSLKPEDTAVYYCAADPRIRRGDRSTHGYDYWGQGTQVTVSS”, “low polyreactivity”.
Consider “QVQLVESGGGLVQAGGSLRLSCAASGSTFYFIAMGWFRQAPGKEWELVAVIDGSGGFTYYADSVKGRFTISRDNAKNTVYLQMNSLKPEDTAVYYCAADKTQSHYDDWGQGTQVTVTS”, for which the “polyreactivity (PSR sort gate)” value is “high polyreactivity”.
For the sequence “QVQLVESGGGLVQAGGSLRLSCAASGSTFYFNAMGWYRQAPGKARELVAAIDWSGGSTYYADSVKGRFTISRDNAKNTVYLQMNSLKPEDTAVYYCAAPYHYYGNTVGYADYDYWGQGTQVTVSS”, the “polyreactivity (PSR sort gate)” value is “low polyreactivity”.
For “QVQLVESGGGLVQAGGSLRLSCAASGSTFYFNAMGWYRQAPGKERELVAGIRYSGSSTYYADSVKGRFTISRDNAKNTVYLQMNSLKPVDTAVYYCAASLWRWRFSGFGYWGQGTQVTVSS”, the “polyreactivity (PSR sort gate)” value is “high polyreactivity”.
The entry for “QVQLVESGGGLVQAGGSLRLSCAASGSTFYFYVLGWYRQAPGKERELVAAISWGGASTYYAVSVKGRFTISRDHAKNTVYLQLNSLKPEDTAVYNCTDRLRVRYDYWGQGTQVTVSS” is “low polyreactivity”; for “QVQLVESGGGLVQAGGSLRLSCAASGSTFYGNAMAWYRQAPGKEREFVAAISSGGRTYYADSVKGRFTISRDNAKNTVYLQMNSLKPEDTAVYYCAVRRSAFYARFGRNYWGQGTQVTVSS” it is “low polyreactivity”; for “QVQLVESGGGLVQAGGSLRLSCAASGSTFYGYAMGGYRQAPGKERELVAAISSSGGTTYYADSVKGRFTMSRDNAKNTVYLQMNSLKPEDTAVYYCAARRRSGTYWRSANDYWGQGTQVTVSS” it is “high polyreactivity”.
The entry for “QVQLVESGGGLVQAGGSLRLSCAASGSTFYGYAMGWYRQAPGKDRELVAAISSGGRTNYADSVKGRFTISRDNAKNTVYLQLHSLKPEDTAVYYCNARRIYGWWEFDYWGQGTQVTVSS” is “low polyreactivity”.
For the sequence “QVQLVESGGGLVQAGGSLRLSCAASGSTFYGYTMGWYRQAPGKERELVAAISWRGGSTYYADSVKGRFTISRDNAKNTVYLQMNSLKPEDTAVYYFAARPYIVTYPWRRYDYWGQGTQVTVSS”, the “polyreactivity (PSR sort gate)” value is on record as “high polyreactivity”.
Regarding “QVQLVESGGGLVQAGGSLRLSCAASGSTFYGYTMGWYRQATGKERELVAVITYGGSTYYADSVKGRFTISRDNAKNTVYLQMNSLKPEDTAVYYCAKRYAYPAYGRPWRIGRTYDYWGQGTQVTVSS”, the “polyreactivity (PSR sort gate)” value is given as “low polyreactivity”.
With “QVQLVESGGGLVQAGGSLRLSCAASGSTFYGYVMGWYRQAPGKERELVAAITWRGTSTYYADSVKGRFTISRDNAKNTVYLQMNSLKPEDTAVYYCRGYYDRDVDYWGQGTQVTVSS”, the “polyreactivity (PSR sort gate)” value is “high polyreactivity”.
